Laboratory results taken from patent US20260242478A1 (published 2026).
Where no end group is shown, it is not given here.

B1: Phage-1917 (peptide)
peptide: IEKMCKPAWMCWAD
B2: Phage-1928 (peptide)
peptide: ELHLCIPRGMCKFR
notes: Clonal phage of the Peptide-180 library, tested as crude supernatant; not shown: fused to the pIII filament protein of the bacteriophage
B3: Phage-1930 (peptide)
peptide: VQNWCIPAWMCQGM
notes: as for B2
B4: Phage-1934 (peptide)
peptide: VSIWCRPAWMCESG
notes: as for B2
B5: Phage-1919 (peptide)
peptide: VSKLCIPMWMCETS
B6: Phage-1918 (peptide)
peptide: EKIWCVPAWMCTWL
B7: Phage-1926 (peptide)
peptide: FAKWCTPEWMCVGF
notes: as for B2
B8: Phage-1924 (peptide)
peptide: TEKLCIPEWMCFGM
notes: as for B2
B9: Phage-1925 (peptide)
peptide: TEMWCKPAWMCTGF
notes: as for B2
B10: Phage-1921 (peptide)
peptide: VDRWCVPVWMCEGL
modifications: cysteine pairing not given here; also: displayed as fusion to phage pIII
notes: as for B2
B11: Phage-1932 (peptide)
peptide: DFKWCTPMWMCEHL
notes: as for B2
B12: Phage-1927 (peptide)
peptide: WENWCTPAWMCSHM
notes: as for B2
B13: Phage-1931 (peptide)
peptide: WDRLCTPAWMCTGF
notes: as for B2
B14: Phage-1929 (peptide)
peptide: AEKWCIPAWMCEAM
notes: as for B2
B15: Phage-1923 (peptide)
peptide: VEKWCIPTWMCELS
notes: as for B2
B16: Phage-1933 (peptide)
peptide: VVQWCIPAWMCAAQ
modifications: cysteine pairing not given here; also: displayed as fusion to phage pIII
notes: as for B2
B17: Phage-1920 (peptide)
peptide: GEYWCIPSWMCQLY
B18: Phage-1922 (peptide)
peptide: LVNWCIPMWMCEGF
notes: as for B2

Tests used:
[1] = biological target: T1, Anti-PSMA Fab (SEQ ID NOs: 19, 20); experiment: phage binding ELISA; clonal phage supernatant on biotinylated PSMA Fab captured on neutravidin plates, anti-M13 HRP detection
T1 construct: Biotinylated PSMA Fab captured on neutravidin coated plates in the phage ELISA; also called 006 PSMA Fab

[2] = biological target: T1, Anti-PSMA Fab (SEQ ID NOs: 19, 20); experiment: phage binding ELISA on captured PSMA Fab pre-incubated with PSMA antigen as competitor, anti-M13 HRP detection
[3] = biological target: T2, Anti-PSMA Fab (SEQ ID NOs: 19, 20) (biotinylated (site not stated)); experiment: phage ELISA; biotinylated PSMA Fab on neutravidin plate, wells pre-incubated with PSMA antigen as competitor, anti-M13 HRP detection
T2 construct: also called 006 PSMA Fab

[4] = biological target: T2, Anti-PSMA Fab (SEQ ID NOs: 19, 20); experiment: phage ELISA; biotinylated PSMA Fab on neutravidin plate, clonal phage supernatant, anti-M13 HRP detection;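 also: wells preincubated with PSMA antigen in blocking buffer or with blocking buffer only before clonal phage were added for a short incubation, then bound phage detected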

Row | Binder | Anti-PSMA Fab (SEQ ID NOs: 19, 20) signal [1] | Anti-PSMA Fab signal in the presence of PSMA [2] | Phage binding ELISA, Anti-PSMA Fab signal in the presence of PSMA [3] | Phage binding ELISA, Anti-PSMA Fab (SEQ ID NOs: 19, 20) signal [4]
1 | B1 | 2 | 0.0706 | – | –
2 | B2 | – | – | 0.0668 | 1.98
3 | B3 | – | – | 0.0574 | 1.98
4 | B4 | – | – | 0.0809 | 1.97
5 | B5 | 1.99 | 0.064 | – | –
6 | B6 | 1.99 | 0.121 | – | –
7 | B7 | – | – | 0.125 | 1.99
8 | B8 | – | – | 0.0644 | 1.99
9 | B9 | – | – | 0.0938 | 1.99
10 | B10 | – | – | 0.124 | 1.99
11 | B11 | – | – | 0.106 | 1.97
12 | B12 | – | – | 0.1 | 1.98
13 | B13 | – | – | 0.104 | 1.97
14 | B14 | – | – | 0.0668 | 1.98
15 | B15 | – | – | 0.0767 | 1.99
16 | B16 | – | – | 0.0955 | 1.97
17 | B17 | 1.99 | 0.179 | – | –
18 | B18 | – | – | 0.107 | 1.99
